# Target: the molecule itself
# Assay: SEC-MALS
protein,measurement,value
"VopL fragment 130-484 (3W-VCD) (domain or fragment, Vibrio parahaemolyticus, UniProt Q87GE5 130-484, looked up) SVNEDHSKLMEQIRQGVKLKSATKSLSADKSSADAHSKLMEELLTGGRKLKKVATSDIPAPPPLPSASTSKSPDSRNALLSEIAGFSKDRLRKTGSLETLNSSQSKDKESFEPTTHERLLSEDLFKQSPKLSEQELDELANNLADYLFQAADIDWHQVISEKTRGLTTEEMAKSEHRYVQAFCREILKYPDCYKSADVASPESPKSGGGSVIDVALKRLQTGRERLFTTTDEKGNRELKKGDAILESAINAARMAISTEEKNTILSNNVKSATFEVFCELPCMDGFAEQNGKTAFYALRAGFYSAFKNTDTAKQDITKFMKDNLQAGFSGYSYQGLTNRVAQLEAQLAALSAKLS",stoichiometry N,2

# From publication PMC3173040 (Nature structural & molecular biology, 2011)
